Data from patent US20110014125.

How the values were obtained:
[1] = tested on: T1, oligopeptide CGGGSGRSAGGGC (SEQ ID NO: 35) tethering Zn-TCPP and TCPP porphyrins to a stealth-protected Fe/Fe3O4 nanoparticle
T1 sequence: CGGGSGRSAGGGC

[2] = tested on: T2, oligopeptide CGGGSGRSAGGGC (SEQ ID NO: 35) linking two gold nanoparticles (Au-Au nanoparticle assembly)
T2 sequence: CGGGSGRSAGGGC

[3] = tested on: T3, oligopeptide SRSRSRSRSRSGRSAGGGC (SEQ ID NO: 18) as spacer between a pyrene fluorophore and a coumarin acceptor
T3 sequence: SRSRSRSRSRSGRSAGGGC

[4] = tested on: Fe/Fe3O4 nanoparticle-TCPP assemblies featuring the urokinase cleavage sequence

urokinase
fluorescence band at 607 nm over 0-6 minutes [1]: distinct decrease of the fluorescence band at λ1=607 nm
maximum of the gold plasmon absorption (UV/Vis absorption, after 180 seconds with urokinase) [2]: shift from 523 nm to 517 nm within 180 seconds
maximum of the gold plasmon absorption (UV/Vis absorption, before cleavage) [2]: shift from 523 nm to 517 nm within 180 seconds
coumarin emission (FRET from pyrene, excitation 280 nm) over 0-15 minutes [3]: The coumarin emission decreases with time
cleavage rate (rate constant k from TCPP luminescence at 656 nm vs. time) [4]: the cleavage rate increases by 3-5 times per order of magnitude of increase in urokinase concentration
